In patent CN116178530A:

Tests used:
Test in all cases: cell-based or functional assay
[1] = molecular target: SARS-CoV-2的Delta突变株(B.1.617.2)假病毒的刺突蛋白 (SARS-CoV-2) (UniProt P0DTC2)
[2] = molecular target: SARS-CoV-2的Alpha突变株(B.1.1.7)假病毒的刺突蛋白 (SARS-CoV-2) (UniProt P0DTC2)
[3] = molecular target: SARS-CoV-2的Kappa突变株(B.1.617.1)假病毒的刺突蛋白 (SARS-CoV-2) (UniProt P0DTC2)

CB6 (antibody) showed a 假病毒中和 IC50 (荧光素酶报告基因, 293-ACE2细胞) [1] of 0.00343 µg/mL, a 假病毒中和 IC50 (荧光素酶报告基因, 293-ACE2细胞) [2] of 0.0557 µg/mL and a 假病毒中和 IC50 (荧光素酶报告基因, 293-ACE2细胞) [3] of 0.0147 µg/mL.
